Measured values as given in IntAct's records for PubMed 22863780.

Biological target: rcan1_mouse Rcan1 (UniProt Q9JHG6)

effect of a mutation on the interaction: disrupting interaction
Substance: Fragile X messenger ribonucleoprotein 1 (Mus musculus) (from UniProt P35922) S499A
